Measurements: PMC11539920 (Nature, 2024)
Like-named read-outs stand apart in the source and are kept apart here.

What was measured:
[1] = biological target: BRCA1 (subunit of the purified BRCA1–BARD1 complex) (human, UniProt P38398 1-1863); assay: mass photometry
BRCA1–BARD1 complex [2] = biological target: T1, BRCA1–BARD1 complex (human, UniProt P38398 1-1863; Q99728 1-777); assay: pull-down
BRCA1–BARD1 complex [3] = biological target: T1, BRCA1–BARD1 complex; assay: pull-down; remark: listed apart in the source

T1 sequence (P38398 whole entry, one chain of several): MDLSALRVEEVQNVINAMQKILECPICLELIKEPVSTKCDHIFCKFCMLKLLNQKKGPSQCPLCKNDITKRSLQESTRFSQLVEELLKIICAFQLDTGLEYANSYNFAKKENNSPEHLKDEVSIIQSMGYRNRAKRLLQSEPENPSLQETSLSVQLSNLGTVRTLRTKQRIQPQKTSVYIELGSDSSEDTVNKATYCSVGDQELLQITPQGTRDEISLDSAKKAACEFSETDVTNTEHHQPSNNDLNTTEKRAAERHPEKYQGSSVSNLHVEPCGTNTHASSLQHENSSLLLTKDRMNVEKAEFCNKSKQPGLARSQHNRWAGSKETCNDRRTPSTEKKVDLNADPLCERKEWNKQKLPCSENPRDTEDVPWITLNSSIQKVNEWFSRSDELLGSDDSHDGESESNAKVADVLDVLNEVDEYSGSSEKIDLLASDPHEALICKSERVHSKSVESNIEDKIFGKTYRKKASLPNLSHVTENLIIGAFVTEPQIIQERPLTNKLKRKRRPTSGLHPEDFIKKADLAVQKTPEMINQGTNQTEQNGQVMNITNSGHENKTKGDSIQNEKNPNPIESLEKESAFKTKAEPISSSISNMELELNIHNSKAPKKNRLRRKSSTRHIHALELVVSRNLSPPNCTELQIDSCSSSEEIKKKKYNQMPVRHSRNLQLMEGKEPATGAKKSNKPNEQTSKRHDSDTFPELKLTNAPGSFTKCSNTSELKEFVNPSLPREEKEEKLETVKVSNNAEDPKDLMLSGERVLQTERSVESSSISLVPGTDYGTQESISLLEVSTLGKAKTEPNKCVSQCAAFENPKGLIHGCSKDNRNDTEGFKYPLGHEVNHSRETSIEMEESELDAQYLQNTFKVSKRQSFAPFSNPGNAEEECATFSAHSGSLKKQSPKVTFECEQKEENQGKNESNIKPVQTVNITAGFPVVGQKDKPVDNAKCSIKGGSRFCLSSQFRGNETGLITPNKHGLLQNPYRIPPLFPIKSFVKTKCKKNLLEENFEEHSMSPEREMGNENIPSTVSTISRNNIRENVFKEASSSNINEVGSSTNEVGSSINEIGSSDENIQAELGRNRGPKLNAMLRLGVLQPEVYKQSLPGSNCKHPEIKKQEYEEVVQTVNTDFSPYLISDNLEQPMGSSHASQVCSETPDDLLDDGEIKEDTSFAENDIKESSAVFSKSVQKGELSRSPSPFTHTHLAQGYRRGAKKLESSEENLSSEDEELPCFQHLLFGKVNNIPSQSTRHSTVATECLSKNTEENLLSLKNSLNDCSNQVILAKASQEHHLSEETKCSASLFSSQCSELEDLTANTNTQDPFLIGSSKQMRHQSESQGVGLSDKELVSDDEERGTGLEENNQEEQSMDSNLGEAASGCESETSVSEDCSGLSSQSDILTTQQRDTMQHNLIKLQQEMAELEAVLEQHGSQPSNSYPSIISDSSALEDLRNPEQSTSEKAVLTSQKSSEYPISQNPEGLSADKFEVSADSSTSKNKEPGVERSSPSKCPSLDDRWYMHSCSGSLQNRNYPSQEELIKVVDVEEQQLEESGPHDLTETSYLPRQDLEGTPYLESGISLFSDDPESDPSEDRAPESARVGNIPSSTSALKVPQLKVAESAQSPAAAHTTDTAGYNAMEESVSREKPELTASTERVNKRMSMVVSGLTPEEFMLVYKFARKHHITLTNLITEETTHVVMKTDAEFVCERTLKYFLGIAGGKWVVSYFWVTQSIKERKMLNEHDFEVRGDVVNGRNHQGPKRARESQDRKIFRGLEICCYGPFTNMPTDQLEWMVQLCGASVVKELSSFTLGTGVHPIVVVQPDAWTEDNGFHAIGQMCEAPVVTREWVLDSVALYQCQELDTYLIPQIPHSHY
BRCA1 (subunit of the purified BRCA1–BARD1 complex), sequence (P38398 whole entry, one chain of several): as above

Binder	binding result (BRCA1–BARD1 complex [2])	also measured
BARD1 (subunit of the purified BRCA1–BARD1 complex) (natural protein, human, UniProt Q99728 1-777, looked up) MPDNRQPRNRQPRIRSGNEPRSAPAMEPDGRGAWAHSRAALDRLEKLLRCSRCTNILREPVCLGGCEHIFCSNCVSDCIGTGCPVCYTPAWIQDLKINRQLDSMIQLCSKLRNLLHDNELSDLKEDKPRKSLFNDAGNKKNSIKMWFSPRSKKVRYVVSKASVQTQPAIKKDASAQQDSYEFVSPSPPADVSERAKKASARSGKKQKKKTLAEINQKWNLEAEKEDGEFDSKEESKQKLVSFCSQPSVISSPQINGEIDLLASGSLTESECFGSLTEVSLPLAEQIESPDTKSRNEVVTPEKVCKNYLTSKKSLPLENNGKRGHHNRLSSPISKRCRTSILSTSGDFVKQTVPSENIPLPECSSPPSCKRKVGGTSGRKNSNMSDEFISLSPGTPPSTLSSSSYRRVMSSPSAMKLLPNMAVKRNHRGETLLHIASIKGDIPSVEYLLQNGSDPNVKDHAGWTPLHEACNHGHLKVVELLLQHKALVNTTGYQNDSPLHDAAKNGHVDIVKLLLSYGASRNAVNIFGLRPVDYTDDESMKSLLLLPEKNESSSASHCSVMNTGQRRDGPLVLIGSGLSSEQQKMLSELAVILKAKKYTEFDSTVTHVVVPGDAVQSTLKCMLGILNGCWILKFEWVKACLRRKVCEQEEKYEIPEGPRRSRLNREQLLPKLFDGCYFYLWGTFKHHPKDNLIKLVTAGGGQILSRKPKPDSDVTQTINTVAYHARPDSDQRFCTQYIIYEDLCNYHPERVRQGKVWKAPSSWFIDCVMSFELLPLDS		stoichiometry N [1]: 1
GST-tagged BLM fragment, residues 636–857 (domain or fragment) not shown	binds	
GFP-WRN (enzyme) not shown		binding result (BRCA1–BARD1 complex [3]): binds

Second part, led by results:

binding result (BRCA1–BARD1 complex [2])	Binder	also measured
binds	GST-tagged BLM fragment, residues 636–1298 (domain or fragment) not shown	
binds	GST-tagged BLM fragment, residues 2–635 (domain or fragment, human, UniProt P54132 2-635, looked up) AAVPQNNLQEQLERHSARTLNNKLSLSKPKFSGFTFKKKTSSDNNVSVTNVSVAKTPVLRNKDVNVTEDFSFSEPLPNTTNQQRVKDFFKNAPAGQETQRGGSKSLLPDFLQTPKEVVCTTQNTPTVKKSRDTALKKLEFSSSPDSLSTINDWDDMDDFDTSETSKSFVTPPQSHFVRVSTAQKSKKGKRNFFKAQLYTTNTVKTDLPPPSSESEQIDLTEEQKDDSEWLSSDVICIDDGPIAEVHINEDAQESDSLKTHLEDERDNSEKKKNLEEAELHSTEKVPCIEFDDDDYDTDFVPPSPEEIISASSSSSKCLSTLKDLDTSDRKEDVLSTSKDLLSKPEKMSMQELNPETSTDCDARQISLQQQLIHVMEHICKLIDTIPDDKLKLLDCGNELLQQRNIRRKLLTEVDFNKSDASLLGSLWRYRPDSLDGPMEGDSCPTGNSMKELNFSHLPSNSVSPGDCLLTTTLGKTGFSATRKNLFERPLFNTHLQKSFVSSNWAETPRLGKKNESSYFPGNVLTSTAVKDQNKHTASINDLERETQPSYDIDNFDIDDFDDDDDWEDIMHNLAASKSSTAAYQPIKEGRPIKSVSERLSSAKTDCLPVSSTAQNINFSESIQNYTDKSAQNLA	
